Test system: MS2 coat protein
Assay: apparent KD of MS2 coat protein; higher = weaker reporter binding
Details: Eterna round: R107
In short: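 Illumina sequencing clusters were used for on-chip transcription of designed RNA switches. Titration with SNAP-549-labelled MS2 coat protein followed, in twofold steps from 0.7 or 1.5 nM to 3 µM in 100 mM Tris-HCl pH 7.5, 80 mM KCl, 4 mM MgCl2, without or with constant ligand. Apparent KD is each design's median of fits to normalised cluster binding curves.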

[1] = input ligand: theophylline 20 uM
[2] = input ligand: theophylline 2 mM
[3] = input ligand: tryptophan 2.4 mM

Sequence	apparent KD of MS2 coat protein (input ligand: arginine 13.2 mM) [nM]	apparent KD of MS2 coat protein [1] [nM]	apparent KD of MS2 coat protein [2] [nM]	apparent KD of MS2 coat protein [3] [nM]	apparent KD of MS2 coat protein (input ligand: none) [nM]
CUUCGCAUAGGAAAACUAUGUGAAGAAAAUCGAGGACCGGUACGGCCGCCACUCGUCCUCAACAUGAGGAUCACCCAUGUAAUAA [Mat - Exclusion - Trytophan A - D6]	17.3	21.2	20.4	–	–
GAAAGAUGAGGCGGCAGUACCGAUGUCGAUACCAGCAUGAACAAAUGCCCUUGGCAGCGACAUGAGGAUCACCCAUGUAUCUGCG [Reraatlaan]	14.5	16.1	–	11.6	–
GACCGAUUAUAGCACGAUUGUCUUGUGGAAGGAGCGCAGAGGGCUGCAGGUAGGUCGCCACAUGAGGAUCACCCAUGUCAGGAUA [Raanti]	4.57	66.6	59.1	46.6	60
GAGAGAGGAGUGCGGCGUGUUCCGCUCCGUCGAGGACCGGUACGGCCGCCACUCGACAUGAGGAUCACCCAUGUCCUCUCUCGCG [#1 Exclusion - Tryptophan A Attempt #4 (HarryS)]	16.8	102	42.1	–	–
GAGCUCGUGGACUGGCGUGCUCCGCUCCGUCGAGGACCGGUACGGCCGCCACUCGACAUGAGGAUCACCCAUGUGUGAGCUCGCU [#1 Exclusion - Tryptophan A Attempt #21 (HarryS)]	61.1	185	390	–	–
GAGCUGAUGUAGAGAAUAAAUAUAAGAGAUACCAGUACAGAAAUGUACCCUUGGCAGCUCAACUUUACAUGAGGAUCACCCAUGU [Ex Theophylline A 18]	14.1	16.7	–	13.9	–
GAGCUGAUGUAGAGCUAAUAUAAGAGAGAUACCAGUACAGAAAUGUACCCUUGGCAGCUCAACUUUACAUGAGGAUCACCCAUGU [Ex Theophylline A 21]	12.2	13.4	–	16	–
GAGUAGAGGACGGCCGCCACUGAACAUGAGGAUCACCCAUGUCGUGAUCCGUUGCCUGAAGAAGAUAGGACCGGGUCAUGUGCUC [Exclusion Tryptophan B GF 20]	40.4	44.7	31.8	25.5	28.6
GAUAGAACAAAAGUUUUAUCAGUGGGUGAACGAGGACCGGUACGGCCGCCACUCGGACAUGAGGAUCACCCAUGUCCAUGUGAAA [AstrosExyTryA#17]	12.6	17.1	19.5	43.9	18.1
GAUAGUUGAUGGGAUACCAGCGUGCACAUGAGGAUCACCCAUGUGGUUCGUGUACGACGGCGCCCUUGGCAGCCCAUAUUGUGUA [#13 Same State - Theophylline B]	58.2	116	–	181	–
GAUAUGGAAACAUGUCAGAUCCUUACCGGUCGAGGACCGGUACGGCCGCCACUCGAAAAUAAUAAACAUGAGGAUCACCCAUGUA [Ex Tryptophan A 16]	17	18.8	17.5	–	–
GAUGAACUAUUUGAUACCAGACAACAUGAGGAUCACCCAUGUGCGCGUCGUCCUCUGCCUGUCCCUUGGCAGCAAAUAGUUUAUC [XTheo B #10]	52.6	81.8	–	36.6	–
GAUGGAAUAAGAGAUACCAGACACAAUUUAGCAUGUAUAUACAUGAGGAUCACCCAUGUAGUCCCUUGGCAGCUCUGGUUAGUGU [theeternabot_exclusion_MS2_Theo_B_48]	21.4	27.7	–	20.8	–
GCAAUAACGAUUGAUACCAGCAUGUUAACAUGAGGAUCACCCAUGUUAAGGAUAACAUAAUGCCCUUGGCAGCAACGGAAAGCCG [Ac]	16.8	22.9	–	18.5	–
GCACCAGGUACGGAUACCAGAGCAAGCCAAAUGAGUGACCAUGAGGAUCACCCAUGGUUGCUCCCUUGGCAGCCGUACCUGGUGC [ETB NP+V+V2 #13 Diff Apt, +-Same Structure]	7.28	12.1	79	10.9	12
GCACGACAUGAGGAUCACCCAUGUGCCGAUACCAGCCGGAUAUACGGCCCUUGGCAGCGGAGUGGAUCCGGAGGACCAUGGGUAA [Same State Theophylline A GF7]	2.16	156	250	92.5	236
GCAGACAUGAGGAUCACCCAUGUACUUGGGCGAGGACCGGUACGGCCGCCACUCGUAGACUUGACGAGGAAAUGUUCUCGCAGGG [theeternabot_sameState_MS2_Trp_A_24]	22.1	31.6	28.4	–	–
GCAUCCUAGUCGGCCGCCACUGGUACGAACACCUUCACCCGUGUGCACAUGAGGAUCACCCAUGUUAGGACCGGGACUAGGAUGC [SSTryp B #21]	10.3	11	8.45	–	–
GCAUCCUAGUCGGCCGCCACUGGUAUCAACACCUUCACCCGUGUGCACAUGAGGAUCACCCAUGUUAGGACCGGGACUAGGAUGC [SSTryp B #19]	8.01	12.5	9.55	–	–
GCCGCGGCCGCGAUACACAUGGGUGUGUAACGAGGACCGGUACGGCCGCCACUCGAGAUGAUGUACAUGAGGAUCACCCAUGUAC [Exclusion Tryp A GF13]	11.8	15.4	11.9	13.9	11.6
GCCGCGGCCGGAAUAAACAUGGGUAAAUAACGAGGACCGGUACGGCCGCCACUCGAGAUAAAUAACAUGAGGAUCACCCAUGUAC [Exclusion Tryp A GF11]	43	111	123	–	–
GCGCGCGCCGAAAGGCGCGCGUGUUGCGAUACCAGCCCGGAAACGGGCCCUUGGCAGCGCACAUGAGGAUCACCCAUGUCAUGUU [Exclusion - Theophylline A Attempt #1 (HarryS)]	14.9	27.1	24.5	21.9	17.9
GCUACGUGCUGAAGGAGCGUGGACCUAAACAUGAGGAUCACCCAUGUCGUGUAGGCAGAUUCACAGGUAGGUCGCAGCACGUAGC [SSAB NP+V+V2 #14 Same Structure]	61.2	123	120	99.7	92.2
GCUGUAAGUGCAGAUACCAGCAAGUGAGGUUUCAUAUGACAUGAGGAUCACCCAUGUAUCUGCCCUUGGCAGCUGCACUUACAGC [#28 Same State - Theophylline B]	17	24.2	–	21.7	–
GCUUAGAAACCUGAUACCAGUCAGCCCUAUGACAUGAGGAUCACCCAUGUGAUACUCACGGACCCUUGGCAGCAGGGUCGAUUAC [theeternabot_sameState_MS2_Theo_B_17]	231	812	–	1000	–
GCUUGGGUCGCAAGGCCCUGGCGUUGCGAUACCAGCACGGUAACGUGCCCUUGGCAGCGCACAUGAGGAUCACCCAUGUGGUGCG [#1 Exclusion - Theophylline A Attempt #22 (HarryS)]	16.5	27.8	229	17.4	18.3
GGACCAUGGAGCGAUACCAGCUUGAGUGUGCUGGCCAGGCACAUGAGGAUCACCCAUGUAAGCCCUUGGCAGCGCUCCAUGGUCC [#1 Exclusion - Theophylline B Attempt #26 (HarryS)]	7.45	13.3	13.5	10.6	8.39
GGACGAAGUUUCUUGUCCGGUCGCUGAGAAGGAGCGCGGUAAACCGCAGGUAGGUCGCUCAGAAAUACAUGAGGAUCACCCAUGU [Orsosous]	17.1	27.2	21.4	21.5	21.1

From the supplement of paper PMC9170038
